The subject of the experiment is human multiple myeloma cell RPMI 8226. Nature of the experiment: Morphological observation of induced apoptosis (MGG staining). The format is cell-based. The note with it: 200 ng/ml, 3 h. Here is the method: FIG. 3. The morphological change of the apoptosis of human multiple myeloma cell RPMI 8226 induced by NCPT-1.M1. The cells were incubated with NCPT-1.M1 (200 ng/ml) for 3 h and then prepared as smears before MGG staining.
The RPMI 8226 cells (ATCC) were cultured in cell culture flasks until logarithmic growth phase, collected by centrifugation, resuspended with complete medium (10% FBS-RPMI1640) at 1×10^6/well, added into 6-well cell culture plate (Costar). The NCPT-1.M1 was diluted with complete medium, added to a final concentration of 200 ng/ml, incubated at 37° C. in 5% CO2 incubator for 3 h. The cells were collected, prepared as smears, fixed with methanol before May-Grünwald-Giemsa (MGG, May-Grünwald stain, commercial available from Beijing ZhongYe HengYuan Chemicals, Giemsa stain, commercial available from Solarbio) staining.

B1: NCPT-1.M1: MG+His6+NCPT-1 fusion protein, SEQ ID NO: 5 (protein)
chain: MGHHHHHHTLSSPNSKNEKALGRKINSWESSRSGHSFLSNLHLRNGELVIHEKGFYYIYSQTYFRFQEEIKENTKNDKQMVQYIYKYTSYPDPILLMKSARNSCWSKDAEYGLYSIYQGGIFELKENDRIFVSVTNEHLIDMDHEASFFGAFLVGGGGGGRVAAHITGTRGRSNT
modifications: NCPT-1.M1 polypeptide sequence
With B1, the “morphological features of apoptosis (MGG staining)” value is listed as “obvious features of apoptosis were observed”.

The record behind these values is patent US9289468B2, “Fusion protein comprising circularly permuted form of trail/Apo2L, coding gene and use thereof” (Beijing Sunbio Biotech Co. Ltd., priority 2011, dated 2016).
